{
  "source": "patent US20040087777A1",
  "about": "(NEURALAB, published 2004)",
  "binders": {"B1": {"name": "humanized 3D6 version 1 (antibody, V domains shown)", "VH": "EVQLLESGGGLVQPGGSLRLSCAASGFTFSNYGMSWVRQAPGKGLEWVASIRSGGGRTYYSDNVKGRFTISRDNAKNSLYLQMNSLRAEDTALYYCVRYDHYSGSSDYWGQGTLVTVSS", "VL": "YVVMTQSPLSLPVTPGEPASISCKSSQSLLDSDGKTYLNWLLQKPGQSPQRLIYLVSKLDSGVPDRFSGSGSGTDFTLKISRVEAEDVGVYYCWQGTHFPRTFGQGTKVEIK", "notes": "Human constant regions (light chain vector pCMV-cK); also called humanized 3D6v1; h3D6v1"}},
  "key": {"[1]": {"target": "T1, beta amyloid peptide (Aβ) (human, UniProt P05067 672-713, limits assumed)", "T1 construct": "also called A-beta; β-amyloid peptide", "assay": "ELISA competitive binding assay with biotinylated 3D6"}, "[2]": {"target": "T1, beta amyloid peptide (Aβ)", "assay": "average of ELISA and BIAcore results"}, "[3]": {"target": "T1, beta amyloid peptide (Aβ)", "assay": "BIAcore"}},
  "data": [
    {"binder": "B1", "values": [
      {"measurement": "fold less binding affinity than 3D6", "setting": "[1]", "value": "~6", "unit": "fold"},
      {"measurement": "fold loss of binding affinity against 3D6", "setting": "[2]", "value": "~3", "unit": "fold"},
      {"measurement": "Kd", "setting": "[3]", "value": 2.06, "unit": "nM"},
      {"measurement": "koff", "setting": "[3]", "value": 0.000382, "unit": "s⁻¹"},
      {"measurement": "kon", "setting": "[3]", "value": 185000, "unit": "M⁻¹ s⁻¹"}
    ]}
  ]
}
